The target in assay [1] is T1, ZIKV-H/PF/2013 sE protein (aa 1-404) (Zika virus (strain H/PF/2013)).
T1 construct: also called ZIKV sE; ZIKV (sE)2
Kind of assay: BLI. For orientation: Biolayer interferometry detects binding as a change in optical thickness at a sensor tip.

In assay [2] the target is T2, DENV4_Burma/63632/1976 sE protein (aa 1-395) (Dengue virus 4 (strain Burma/63632/1976)).
T2 construct: also called DENV4 sE
T2 chain: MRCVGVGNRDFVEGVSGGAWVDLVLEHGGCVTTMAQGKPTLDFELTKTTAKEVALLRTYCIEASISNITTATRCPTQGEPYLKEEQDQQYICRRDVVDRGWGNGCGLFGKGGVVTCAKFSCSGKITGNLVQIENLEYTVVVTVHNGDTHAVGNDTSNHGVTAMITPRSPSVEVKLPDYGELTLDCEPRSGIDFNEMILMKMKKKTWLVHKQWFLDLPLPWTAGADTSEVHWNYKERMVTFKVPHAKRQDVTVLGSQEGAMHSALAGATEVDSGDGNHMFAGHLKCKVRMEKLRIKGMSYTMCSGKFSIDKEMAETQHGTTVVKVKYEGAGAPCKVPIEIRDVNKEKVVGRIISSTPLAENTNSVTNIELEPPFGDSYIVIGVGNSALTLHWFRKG
In words: crystal structure. The conditions noted are these: both partners purified.

Assay [3] has as its target T1, ZIKV-H/PF/2013 sE protein (aa 1-404). In words: SEC-MALS; Superdex 200 10/300 GL; Tris 50 mM pH 8.0, NaCl 500 mM; about 150 ug protein; proteins alone and in complex. The following applies: both partners purified. On the technique in general: Size exclusion chromatography separates by hydrodynamic size, large species first.

Changes are numbered by the printed parent chain. In names and notes the source's numbering stands.

Broadly, the stoichiometry N is the number of molecules, sites or subunits per partner or assembly.

B1: K^L66A C10 mAb mutant (IgG1) (antibody, V domains shown)
VH: EVQLVESGAEVKKPGASVKVSCKASGYTFTSYAMHWVRQAPGQRLEWMGWINAGNGNTKYSQKFQDRVTITRDTSASTAYMELSSLRSEDTAIYYCARDKVDDYGDYWFPTLWYFDYWGQGTLVTVSS
VL: QSALTQPASVSGSPGQSITISCTGTSSDVGGFNYVSWFQQHPGKAPKLMLYDVTSRPSGVSSRFSGSASGNTASLTISGLQAEDEADYYCSSHTSRGTWVFGGGTKLTVL
notes: IgG1
B1 returned an other in assay [1] of 2 fold.

B2: C10 single-chain variable fragment (scFv) (scFv, V domains shown)
VH: B1 VH
VL: B1 VL with A68K
On to B2, for which, in assay [2], the binding result is “binds”.

B3: C10 intact bivalent IgG1 (human monoclonal antibody EDE1 C10) (antibody, V domains shown)
VH: B1 VH
VL: B1 VL with A68K
For B3, in assay [3], the “stoichiometry N” value is 1 C10 molecule per sE dimer (2:2).

B4: C10 bivalent F(ab')2 (other, human)
VH: B1 VH
VL: B1 VL with A68K
With B4, in assay [3], the “stoichiometry N” value is 1 C10 molecule per sE dimer (2:2).

(Values after paper PMC8724787, “The epitope arrangement on flavivirus particles contributes to Mab C10’s extraordinary neutralization breadth across Zika and dengue viruses” (Cell, 2021).)
